{
  "source": "patent US4251628A",
  "about": "“Substrates for angiotensin converting enzyme” (priority 1978, dated 1981)",
  "substrate": "O=C(O)CNC(=O)CNC(=O)CNC(=O)c1ccccc1",
  "assay": "ACE assay: hydrolysis of ^3H-HipGlyGly by human serum, Lineweaver-Burke Km",
  "format": "biochemical",
  "conditions": "other: human serum, pH 8.0, 37° C., 60 min",
  "procedure": "The following sample illustrates the preferred assay method, the sensitivity of the assay and the Km for ^3 H-HipGlyGly. The reaction buffer contains 0.05 M Hepes, 0.1 M sodium chloride and 0.6 M sodium sulphate at pH 8.0. (Pepes is N-2-Hydroxyethyl piperazine N'-2-ethane sulfonic acid.) The substrate, ^3 H-HipGlyGly was dissolved in reaction buffer at a concentration of 16 mM and a specific radioactivity of about 0.15 millicuries/millimole. Serum was prepared from fresh whole blood by standard techniques. […] Hemolyzed samples were not used in the assay. Serum samples could be stored at least for one week at 2° C. to 8° C. or for at least 8 weeks frozen, prior to assaying. For the assay, 50 μl. of serum was diluted with 200 μl. of reaction buffer. […]\nA control determination of background radioactivity was made using 50 μl. of reaction buffer instead of diluted serum in the reaction mixture. […] Total radioactivity was determined by counting an amount of substrate equal to that used in the reaction mixture directly in the scintillation counter.\nReaction velocity, in terms of nanomoles of product formed per minute per ml of serum was calculated according to the following formula: [formula] In this formula, \"nmoles\" means nanomoles, \"min\" means minutes, \"ml\" means milliliters and \"cpm\" means radioactivity counts per minute. […]",
  "data": [
    {"protein": "angiotensin converting enzyme (ACE) (Homo sapiens) (protein, Serum was prepared from fresh whole blood by standard techniques; from tissue; host or cells: serum (unfractionated)) LDPGLQPGNFSADEAGAQLFAQSYNSSAEQVLFQSVAASWAHDTNITAENARRQEEAALLSQEFAEAWGQKAKELYEPIWQNFTDPQLRRIIGAVRTLGSANLPLAKRQQYNALLSNMSRIYSTAKVCLPNKTATCWSLDPDLTNILASSRSYAMLLFAWEGWHNAAGIPLKPLYEDFTALSNEAYKQDGFTDTGAYWRSWYNSPTFEDDLEHLYQQLEPLYLNLHAFVRRALHRRYGDRYINLRGPIPAHLLGDMWAQSWENIYDMVVPFPDKPNLDVTSTMLQQGWNATHMFRVAEEFFTSLELSPMPPEFWEGSMLEKPADGREVVCHASAWDFYNRKDFRIKQCTRVTMDQLSTVHHEMGHIQYYLQYKDLPVSLRRGANPGFHEAIGDVLALSVSTPEHLHKIGLLDRVTNDTESDINYLLKMALEKIAFLPFGYLVDQWRWGVFSGRTPPSRYNFDWWYLRTKYQGICPPVTRNETHFDAGAKFHVPNVTPYIRYFVSFVLQFQFHEALCKEAGYEGPLHQCDIYRSTKAGAKLRKVLQAGSSRPWQEVLKDMVGLDALDAQPLLKYFQPVTQWLQEQNQQNGEVLGWPEYQWHPPLPDNYPEGIDLVTDEAEASKFVEEYDRTSQVVWNEYAEANWNYNTNITTETSKILLQKNMQIANHTLKYGTQARKFDVNQLQNTTIKRIIKKVQDLERAALPAQELEEYNKILLDMETTYSVATVCHPNGSCLQLEPDLTNVMATSRKYEDLLWAWEGWRDKAGRAILQFYPKYVELINQAARLNGYVDAGDSWRSMYETPSLEQDLERLFQELQPLYLNLHAYVRRALHRHYGAQHINLEGPIPAHLLGNMWAQTWSNIYDLVVPFPSAPSMDTTEAMLKQGWTPRRMFKEADDFFTSLGLLPVPPEFWNKSMLEKPTDGREVVCHASAWDFYNGKDFRIKQCTTVNLEDLVVAHHEMGHIQYFMQYKDLPVALREGANPGFHEAIGDVLALSVSTPKHLHSLNLLSSEGGSDEHDINFLMKMALDKIAFIPFSYLVDQWRWRVFDGSITKENYNQEWWSLRLKYQGLCPPVPRTQGDFDPGAKFHIPSSVPYIRYFVSFIIQFQFHEALCQAAGHTGPLHKCDIYQSKEAGQRLATAMKLGFSRPWPEAMQLITGQPNMSASAMLSYFKPLLDWLRTENELHGEKLGWPQYNWTPNSAR", "values": [
      {"measurement": "Km", "value": 6.25, "unit": "mM"}
    ]}
  ]
}
